From patent US6413759

Key:
[1] = target: T1, SKC-2-N13 (SKC-2 with deletion of the first 13 N-terminal residues)
T1 chain: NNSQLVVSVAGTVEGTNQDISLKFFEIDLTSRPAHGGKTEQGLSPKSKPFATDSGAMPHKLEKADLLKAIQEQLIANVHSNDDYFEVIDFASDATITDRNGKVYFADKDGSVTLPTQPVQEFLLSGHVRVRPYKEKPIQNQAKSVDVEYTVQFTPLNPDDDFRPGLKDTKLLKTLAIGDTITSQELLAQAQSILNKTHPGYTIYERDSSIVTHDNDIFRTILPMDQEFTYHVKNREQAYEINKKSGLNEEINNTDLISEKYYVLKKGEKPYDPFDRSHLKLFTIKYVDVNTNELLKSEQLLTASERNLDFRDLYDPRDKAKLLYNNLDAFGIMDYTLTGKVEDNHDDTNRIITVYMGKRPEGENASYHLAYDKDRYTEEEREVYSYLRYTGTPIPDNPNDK

[2] = target: T2, SKC-2-C42 (SKC-2 with deletion of the last 42 residues, 373-414)
T2 chain: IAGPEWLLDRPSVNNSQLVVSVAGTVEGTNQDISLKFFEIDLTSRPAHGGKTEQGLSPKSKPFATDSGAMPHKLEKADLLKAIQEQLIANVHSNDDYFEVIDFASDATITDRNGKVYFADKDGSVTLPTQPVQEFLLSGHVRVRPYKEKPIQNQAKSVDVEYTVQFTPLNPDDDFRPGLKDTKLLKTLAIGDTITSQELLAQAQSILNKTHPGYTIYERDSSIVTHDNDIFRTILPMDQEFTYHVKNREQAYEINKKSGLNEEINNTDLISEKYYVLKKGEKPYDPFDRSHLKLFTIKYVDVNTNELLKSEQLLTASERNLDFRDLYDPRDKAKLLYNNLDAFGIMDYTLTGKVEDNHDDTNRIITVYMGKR

B1: human plasminogen (protein)
chain: EPLDDYVNTQGASLFSVTKKQLGAGSIEECAAKCEEDEEFTCRAFQYHSKEQQCVIMAENRKSSIIIRMRDVVLFEKKVYLSECKTGNGKNYRGTMSKTKNGITCQKWSSTSPHRPRFSPATHPSEGLEENYCRNPDNDPQGPWCYTTDPEKRYDYCDILECEEECMHCSGENYDGKISKTMSGLECQAWDSQSPHAHGYIPSKFPNKNLKKNYCRNPDRELRPWCFTTDPNKRWELCDIPRCTTPPPSSGPTYQCLKGTGENYRGNVAVTVSGHTCQHWSAQTPHTHNRTPENFPCKNLDENYCRNPDGKRAPWCHTTNSQVRWEYCKIPSCDSSPVSTEQLAPTAPPELTPVVQDCYHGDGQSYRGTSSTTTTGKKCQSWSSMTPHRHQKTPENYPNAGLTMNYCRNPDADKGPWCFTTDPSVRWEYCNLKKCSGTEASVVAPPPVVLLPDVETPSEEDCMFGNGKGYRGKRATTVTGTPCQDWAAQEPHRHSIFTPETNPRAGLEKNYCRNPDGDVGGPWCYTTNPRKLYDYCDVPQCAAPSFDCGKPQVEPKKCPGRVVGGCVAHPHSWPWQVSLRTRFGMHFCGGTLISPEWVLTAAHCLEKSPRPSSYKVILGAHQEVNLEPHVQEIEVSRLFLEPTRKDIALLKLSSPAVITDKVIPACLPSPNYVVADRTECFITGWGETQGTFGAGLLKEAQLPVIENKVCNRYEFLNGRVQSTELCAGHLAGGTDSCQGDSGGPLVCFEKDKYILQGVTSWGLGCARPNKPGVYVRVSRFVTWIEGVMRNN
[1]
  specific activity (agarose-fibrin plates, chromogenic substrate, clot lysis): 2000-4000 lU/mg
[2]
  specific activity (agarose-fibrin plates, chromogenic substrate, clot lysis): 50000-100000 IU/mg
